Measurements as given in PMC6364316 (Vaccine, 2018).

What was measured:
gp120 [1] = target: T1, gp120 (HIV-1, strain  for this …, UniProt Q75760); assay: SPR
gp120 [2] = target: T1, gp120; assay: ELISA

B1: IgG b12 (antibody, V domains shown)
VH: QVQLVQSGAEVKKPGASVKVSCQASGYRFSNFVIHWVRQAPGQRFEWMGWINPYNGNKEFSAKFQDRVTFTADTSANTAYMELRSLRSADTAVYYCARVGPYSWDDSPQDNYYMDVWGKGTTVIVSS
VL: EIVLTQSPGTLSLSPGERATFSCRSSHSIRSRRVAWYQHKPGQAPRLVIHGVSNRASGISDRFSGSGSGTDFTLTITRVEPEDFALYYCQVYGASSYTFGQGTKLERK
Kd (gp120 [1]): 36 ± 2 nM
koff (gp120 [1]): 0.0052 s⁻¹
10 times EC50 (gp120 [2]): 1 µg/mL
